According to PMC6321462:

Molecular target: actin from rabbit skeletal muscle (G-actin polymerized to F-actin) (rabbit) (UniProt P68135)

Sequence of MBP-DRR1 dC (recombinant murine DRR1 lacking the C-terminal domain, MBP fusion) (domain or fragment) (Q78TU8 whole entry, the tested form may be a part): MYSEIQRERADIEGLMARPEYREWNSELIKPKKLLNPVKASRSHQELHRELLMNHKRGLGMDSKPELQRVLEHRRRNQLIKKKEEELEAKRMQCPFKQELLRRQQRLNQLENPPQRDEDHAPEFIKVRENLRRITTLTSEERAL

barbed end filament elongation rate in the presence of profilin (1.5 µM), TIRF microscopy, R = 0.5: 36 % of control
Substance: MBP-DRR1 dC (recombinant murine DRR1 lacking the C-terminal domain, MBP fusion) (domain or fragment)
